The values that follow come from the supplement of paper PMC9112550, “Optimization of the antimicrobial peptide Bac7 by deep mutational scanning” (BMC Biology, 2022).
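Also: peptides expressed intracellularly from a pBAD plasmid library in pooled LB shake-flask culture, induced with 0.3% L-arabinose, DNA abundance read by NGS, three biological replicates, DESeq2 with apeglm shrinkage.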

The data set has as its system Escherichia coli TOP10. As to the kind of experiment: shrunken log2 fold change of peptide-encoding DNA abundance (4.5 h post-induction vs induction); higher = less antimicrobial activity (less host growth inhibition). The settings on record: time post-induction: 4.5 h; library: site-saturation at positions 5, 18, 19, 20.
In the case of RRIRVRPPRLPRPRPRPLVMPRP, the “shrunken log2 fold change” value was -0.902. Regarding RRIRCRPPRLPRPRPRPAHVPRP, the “shrunken log2 fold change” value is 0.019. Take RRIRYRPPRLPRPRPRPLGYPRP: the “shrunken log2 fold change” value was -0.162. RRIRRRPPRLPRPRPRPAMIPRP: the “shrunken log2 fold change” value came out at 0.0243. Under RRIRYRPPRLPRPRPRPFDWPRP stands -0.122; under RRIRSRPPRLPRPRPRPTYSPRP, -0.453.

Turning to RRIRQRPPRLPRPRPRPFWKPRP, the “shrunken log2 fold change” value is -0.0968. With RRIRGRPPRLPRPRPRPITWPRP, the “shrunken log2 fold change” value was -0.0883. Take RRIRFRPPRLPRPRPRPDERPRP: the “shrunken log2 fold change” value is -0.0426. The figure for RRIRHRPPRLPRPRPRPPYKPRP is -0.31; for RRIRMRPPRLPRPRPRPFFLPRP it is -0.199. Under RRIRNRPPRLPRPRPRPLANPRP stands 0.142.

Consider RRIRMRPPRLPRPRPRPKKSPRP, for which the “shrunken log2 fold change” value came out at 1.18. Regarding RRIRRRPPRLPRPRPRPLRSPRP, the “shrunken log2 fold change” value is 0.531. As to RRIRLRPPRLPRPRPRPCDMPRP, the “shrunken log2 fold change” value was -0.0352. With RRIRLRPPRLPRPRPRPWAKPRP, the “shrunken log2 fold change” value came to 0.173. The figure for RRIRKRPPRLPRPRPRPAHAPRP is 1.11; for RRIRDRPPRLPRPRPRPMQWPRP it is 0.0918; for RRIRHRPPRLPRPRPRPTRTPRP it is 0.365. The figure for RRIRMRPPRLPRPRPRPNPMPRP is 0.568; for RRIRNRPPRLPRPRPRPQKPPRP it is 0.0646. Turning to RRIRIRPPRLPRPRPRPYPCPRP, the “shrunken log2 fold change” value was -0.028.

As to RRIRCRPPRLPRPRPRPLPCPRP, the “shrunken log2 fold change” value is 0.0339. As for RRIRSRPPRLPRPRPRPKRWPRP, the “shrunken log2 fold change” value turned out to be 0.71. The figure for RRIRDRPPRLPRPRPRPPWVPRP is -0.0472; for RRIRFRPPRLPRPRPRPTCKPRP it is -0.295. Under RRIRQRPPRLPRPRPRPDSLPRP stands -0.0756. The figure for RRIRMRPPRLPRPRPRPERVPRP is 2.69; for RRIRLRPPRLPRPRPRPMWFPRP it is 0.106; for RRIRHRPPRLPRPRPRPMAAPRP it is 0.53. As for RRIRGRPPRLPRPRPRPMNNPRP, the “shrunken log2 fold change” value is 0.18.

RRIRDRPPRLPRPRPRPMGYPRP: the “shrunken log2 fold change” value is -0.115. The figure for RRIRFRPPRLPRPRPRPMQKPRP is 0.00713; for RRIRGRPPRLPRPRPRPEQWPRP it is 0.346; for RRIRARPPRLPRPRPRPCGTPRP it is 0.475.

Turning to RRIRRRPPRLPRPRPRPARAPRP, the “shrunken log2 fold change” value was determined as 0.523.

Turning to RRIRSRPPRLPRPRPRPRKHPRP, the “shrunken log2 fold change” value was 0.0783.

With RRIRIRPPRLPRPRPRPDDKPRP, the “shrunken log2 fold change” value is -0.266. RRIRKRPPRLPRPRPRPDEPPRP: the “shrunken log2 fold change” value turned out to be 2.05. Under RRIRWRPPRLPRPRPRPIWNPRP stands -0.114; under RRIRPRPPRLPRPRPRPPPEPRP, 0.492; under RRIRRRPPRLPRPRPRPRTLPRP, 0.311. Consider RRIRWRPPRLPRPRPRPYTIPRP, for which the “shrunken log2 fold change” value is -0.606. The figure for RRIRKRPPRLPRPRPRPFQCPRP is -0.01; for RRIRVRPPRLPRPRPRPLWAPRP it is 0.081. Under RRIRWRPPRLPRPRPRPIHVPRP stands -0.0677; under RRIRTRPPRLPRPRPRPMIIPRP, -0.0854; under RRIRWRPPRLPRPRPRPGRYPRP, -0.137.

As to RRIRARPPRLPRPRPRPCSRPRP, the “shrunken log2 fold change” value was determined as 0.21.

For the sequence RRIRGRPPRLPRPRPRPLNWPRP, the “shrunken log2 fold change” value was determined as 0.0909.

As to RRIRCRPPRLPRPRPRPGDDPRP, the “shrunken log2 fold change” value is 0.745.

Take RRIRMRPPRLPRPRPRPYCYPRP: the “shrunken log2 fold change” value was -0.13. The figure for RRIRCRPPRLPRPRPRPRCEPRP is 0.0872; for RRIRQRPPRLPRPRPRPNWCPRP it is -0.0237. For the sequence RRIRKRPPRLPRPRPRPSVGPRP, the “shrunken log2 fold change” value is 0.0485. Under RRIRNRPPRLPRPRPRPPWDPRP stands 0.144; under RRIRKRPPRLPRPRPRPFMQPRP, -0.0285; under RRIRDRPPRLPRPRPRPVMAPRP, 0.774. For the sequence RRIRQRPPRLPRPRPRPLCYPRP, the “shrunken log2 fold change” value was -0.383. Under RRIRTRPPRLPRPRPRPSMAPRP stands 0.444; under RRIRIRPPRLPRPRPRPVAVPRP, -0.104. Under RRIRLRPPRLPRPRPRPMAEPRP stands 0.141. Take RRIRDRPPRLPRPRPRPVMLPRP: the “shrunken log2 fold change” value was -0.0376. The figure for RRIRVRPPRLPRPRPRPNIKPRP is -0.497; for RRIRYRPPRLPRPRPRPVTPPRP it is -0.118. Take RRIRWRPPRLPRPRPRPILTPRP: the “shrunken log2 fold change” value came to 0.00604.

For RRIRERPPRLPRPRPRPWCTPRP, the “shrunken log2 fold change” value was -0.391. For the sequence RRIRARPPRLPRPRPRPAYSPRP, the “shrunken log2 fold change” value was -0.0547. As to RRIRGRPPRLPRPRPRPPSYPRP, the “shrunken log2 fold change” value amounted to 0.326.

For the sequence RRIRQRPPRLPRPRPRPDFLPRP, the “shrunken log2 fold change” value was -0.338. Under RRIRARPPRLPRPRPRPHTVPRP stands -0.0287; under RRIRPRPPRLPRPRPRPMHKPRP, 0.0775. With RRIRSRPPRLPRPRPRPYSAPRP, the “shrunken log2 fold change” value is -0.0105. The figure for RRIRRRPPRLPRPRPRPYLLPRP is -0.263; for RRIRDRPPRLPRPRPRPFICPRP it is -0.0606; for RRIRTRPPRLPRPRPRPTAMPRP it is 0.301. As to RRIRFRPPRLPRPRPRPRWEPRP, the “shrunken log2 fold change” value came to 0.025. As to RRIRYRPPRLPRPRPRPDSDPRP, the “shrunken log2 fold change” value was -0.179. Under RRIRMRPPRLPRPRPRPCNAPRP stands 0.0226; under RRIRSRPPRLPRPRPRPNNTPRP, -0.574.

Take RRIRFRPPRLPRPRPRPMAHPRP: the “shrunken log2 fold change” value worked out at 0.0587. In the case of RRIRARPPRLPRPRPRPLGLPRP, the “shrunken log2 fold change” value is 0.353. Under RRIRARPPRLPRPRPRPVHNPRP stands 0.11. As for RRIRVRPPRLPRPRPRPSLFPRP, the “shrunken log2 fold change” value is -0.269. The figure for RRIRFRPPRLPRPRPRPETQPRP is -0.0941. RRIRMRPPRLPRPRPRPKKAPRP: the “shrunken log2 fold change” value turned out to be 0.0459.

Regarding RRIRQRPPRLPRPRPRPALVPRP, the “shrunken log2 fold change” value was determined as 0.297.

Consider RRIRPRPPRLPRPRPRPKAKPRP, for which the “shrunken log2 fold change” value stood at 0.131. For the sequence RRIRLRPPRLPRPRPRPEFSPRP, the “shrunken log2 fold change” value was -0.013. Under RRIRARPPRLPRPRPRPMVWPRP stands 1.07; under RRIRARPPRLPRPRPRPDVEPRP, 0.389.
